The target in test [1] is T1, human TNFR2 on the surface of CHO-TNFR2 cells (human, UniProt P20333 23-461).
T1 construct: whole, on cells
T1 sequence (looked up): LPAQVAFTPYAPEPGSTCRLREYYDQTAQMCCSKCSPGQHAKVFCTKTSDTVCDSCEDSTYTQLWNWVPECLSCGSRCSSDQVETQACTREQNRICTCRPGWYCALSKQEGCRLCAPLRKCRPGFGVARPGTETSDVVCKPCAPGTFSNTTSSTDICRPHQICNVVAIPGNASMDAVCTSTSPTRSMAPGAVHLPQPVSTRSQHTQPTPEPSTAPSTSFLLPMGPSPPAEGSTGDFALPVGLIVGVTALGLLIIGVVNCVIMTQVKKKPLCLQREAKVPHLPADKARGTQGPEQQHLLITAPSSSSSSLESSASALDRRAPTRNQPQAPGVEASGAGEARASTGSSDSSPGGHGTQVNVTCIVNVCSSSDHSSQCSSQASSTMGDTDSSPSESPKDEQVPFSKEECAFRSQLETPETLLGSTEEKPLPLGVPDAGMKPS
Put plainly: competition flow cytometry on CHO-TNFR2 cells, competitor TNFα-biotin; IC50 against 224-WT. The procedure:
(§1) CHO stable cells highly expressing human TNFR2 were used for the experiment (the same as CHO-TNFR2 in Example 4). The CHO-TNFR2 cells were digested, washed twice with DPBS, then stained with Live/Dead (L/D) (20 minutes at room temperature), and plated at a density of 1×10⁵ cells/50 μl/well. A test anti-TNFR2 antibody was diluted to 6 μg/ml with a staining buffer as the starting concentration: the antibody was subjected to 3.33-fold gradient dilution, with a total of 7 concentration points. The diluted antibody was added to the plated cells at 50 μl/well, and the mixture was mixed well by gentle pipetting, and incubated at 4° C. for 30 minutes. Then the diluted 100 ng/ml of human TNFα-biotin was added at 100 μl/well, and the mixture was mixed well by gentle pipetting, and then incubated at 4° C. for 30 minutes. The mixture was washed twice with a staining buffer, and then 0.12 μg/ml PE-streptavidin (BioLegend, Cat #405204) was added at 100 μl/well; the resulting mixture was incubated at 4° C. for 30 minutes. The mixture was washed twice with a staining buffer, and then 150 μl of staining buffer was added to resuspend the cells; signals were detected by a flow cytometer (Thermo Attune NxT). The inhibitory curve of an antibody was drawn with antibody concentration as the abscissa and corresponding MFI value as the ordinate, and fitted with four parameters (GraphPad Prism9) to calculate the IC50 value. The smaller the IC50 value, the stronger the ability of an antibody to inhibit the binding of human TNFα to human TNFR2. The blocking effect of a humanized antibody was normalized to its corresponding human-murine chimeric WT antibody. The higher the percentage value, the better the inhibitory effect of the humanized antibody.
(In general: A flow cytometer gives signals particle by particle.)

For test [2], the target named is T2, human TNFR2 (Novoprotein, Cat #C830) (human, UniProt P20333 23-257, limits assumed).
T2 construct: construct not described; also called human TNFR2 protein
T2 sequence (looked up): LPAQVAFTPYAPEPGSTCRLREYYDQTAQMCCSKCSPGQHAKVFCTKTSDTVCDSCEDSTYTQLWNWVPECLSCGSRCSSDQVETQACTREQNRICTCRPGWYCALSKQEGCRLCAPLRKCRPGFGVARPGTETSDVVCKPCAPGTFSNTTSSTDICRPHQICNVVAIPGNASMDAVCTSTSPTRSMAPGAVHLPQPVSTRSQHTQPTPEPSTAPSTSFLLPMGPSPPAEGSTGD
Put plainly: competition ELISA, competitor human TNFα-Biotin; IC50 against 224-WT. The procedure: 1 μg/ml human TNFR2 (Novoprotein, Cat #C830) was pre-coated with 100 μl/well […] in an ELISA plate. All the test TNFR2 antibodies were subjected to 2.5-fold gradient dilution from the highest concentration of 30 μg/ml; the diluted antibodies were mixed with 15 ng/ml human TNFα-Biotin (Acro Biosystem, Cat #TNA-H82E3) in equal volume, respectively; the resulting mixture was added to the ELISA plate at 100 μl/well, and incubated with shaking at room temperature for 2.0 hours. The plate was washed, and then a Streptavidin-HRP working solution (diluted at 1:10000) was added at 100 μl/well, and the mixture was incubated with shaking at room temperature for 40 minutes. The plate was washed again, and then the substrate TMB of HRP was added to develop colour. A stop solution was added to stop the reaction, and then a microplate reader (MD 13) was used to read the absorbance value. The inhibitory curve of an antibody was drawn with antibody concentration as the abscissa and corresponding OD value as the ordinate, and fitted with four parameters (GraphPad Prism9) to calculate the IC50 value. The smaller the IC50 value, the stronger the ability of an antibody to inhibit the binding of human TNFα to human TNFR2. The blocking effect of a humanized antibody was normalized to its corresponding human-murine chimeric antibody WT. The higher the percentage value, the better the inhibitory effect of the humanized antibody.
On the technique in general: An ELISA detects its analyte on a solid surface through an enzyme-linked reagent.

Test [3] deals with T3, Human TNFR2-His (Sino 10417-H08H) (human, UniProt P20333 23-257).
T3 construct: Bought protein; also called recombinant human TNFR2 protein; not shown: His tag
T3 sequence (looked up): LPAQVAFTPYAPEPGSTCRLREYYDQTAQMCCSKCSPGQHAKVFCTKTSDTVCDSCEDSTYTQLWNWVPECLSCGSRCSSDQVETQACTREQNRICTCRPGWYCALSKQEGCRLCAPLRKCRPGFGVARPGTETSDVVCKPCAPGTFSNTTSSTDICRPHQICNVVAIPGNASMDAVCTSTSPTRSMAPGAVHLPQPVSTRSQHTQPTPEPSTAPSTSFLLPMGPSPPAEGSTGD
As to the kind of experiment: ELISA, human TNFR2-His coated; EC50 against 224-WT. The procedure:
The test humanized antibody against TNFR2 (as described in Example 1, the antibody was comprised of variable regions linked to IgG-Fc; the WT chimeric antibody also adopted the IgG-Fc structure) was subjected to 3.33-fold gradient dilution, loaded with 100 μl/well, and incubated with shaking at room temperature for 1.5 hours. The plate was washed, and then a working solution of murine anti-human IgG Fc-HRP (diluted at 1:10000) was added, loaded with 100 μl/well, and incubated with shaking at room temperature for 1.0 hour. The plate was washed again, and then the substrate TMB of HRP was added to develop colour. A stop solution was added to stop the reaction, and then a microplate reader (MD 13) was used to read the absorbance value. The binding curve of an antibody was drawn with antibody concentration as the abscissa and corresponding OD value as the ordinate, and fitted with four parameters (GraphPad Prism9) to calculate the EC50 value. The smaller the EC50 value, the stronger the binding ability of an antibody to human/cynomolgus monkey TNFR2. The binding effect of a humanized antibody was normalized to its corresponding human-murine chimeric antibody WT (see SEQ ID NOs: 38-43 for the sequence). The higher the percentage value, the better the binding effect of the humanized antibody. The results of binding of an anti-TNFR2 antibody to a human TNFR2 protein are shown in FIG. 1 and Table 4, and the results of binding of an anti-TNFR2 antibody to cynomolgus monkey TNFR2 are shown in FIG. 2 and Table 4.

Test [4] deals with T1, human TNFR2 on the surface of CHO-TNFR2 …. Put plainly: competition flow cytometry on CHO-TNFR2 cells, competitor TNFα-biotin; AUC against 224-WT. The procedure:
as §1

B1: 224-Hu1 (antibody, V domains shown)
VH: QVQLVQSGAEVKKPGASVKVSCKASGFNNKDIYMHWVRQAPGQGLEWIGRIDPATGNTKHDPKFQDRVTMTSDTSTNTVYMELSSLRSEDTAVYYCARSPYGDFGAMDYWGQGTLVTVSS
VL: DIQMTQSPSSLSASVGDRVTITCTASSSVSSNYLHWYQQKPGKAPKLWIYSTSNLPSGVPSRFSGSGSGTDFTLTISSLQPEDFATYYCHQYHRSPWTFGQGTKVEIK
notes: Humanized form of #224; also called VH8 + VL6
With B1, the “% Relative activity (WT antibody/test antibody)” value in test [1] amounted to 108%; in test [2], 106%; in test [3], 143%; in test [4], 99.2%.

B2: 224-Hu7 (antibody, V domains shown)
VH: QVQLVQSGSELKKPGASVKVSCKASGFNNKDIYMHWVRQAPGQGLEWMGRIDPATGNTKHDPKFQDKAVLSSDTSVSTAYLQISSLKAEDTAVYYCARSPYGDFGAMDYWGQGTLVTVSS
VL: DIQMTQSPSSLSASVGDRVTITCTASSSVSSNYLHWYQQKPGKAPKLLIYSTSNLPSGVPSRFSGSGSGTDFTLTISSLQPEDFATYYCHQYHRSPWTFGQGTKVEIK
notes: Humanized form of #224; also called VH9 + VL10
On to B2, for which the “% Relative activity (WT antibody/test antibody)” value came to 73% in test [1], 106% in test [2], 110% in test [3] and 91.1% in test [4].

B3: 224-Hu6 (antibody, V domains shown)
VH: QVQLVQSGAEVKKPGASVKVSCKASGFNNKDIYMHWVRQAPGQGLEWIGRIDPATGNTKHDPKFQDRVTMTSDTSTNTVYMELSSLRSEDTAVYYCARSPYGDFGAMDYWGQGTLVTVSS
VL: DIQMTQSPSSLSASVGDRVTITCTASSSVSSNYLHWYQQKPGSSPKLWIYSTSNLPSGVPSRFSGSGSGTDFTLTISSLQPEDFATYYCHQYHRSPWTFGQGTKVEIK
notes: Humanized form of #224; also called VH8 + VL7
In the case of B3, the “% Relative activity (WT antibody/test antibody)” value was 96% in test [1], 115% in test [2], 104% in test [3] and 99.4% in test [4].

B4: 224-Hu2 (antibody, V domains shown)
VH: QVQLVQSGSELKKPGASVKVSCKASGFNNKDIYMHWVRQAPGQGLEWMGRIDPATGNTKHDPKFQDKAVLSSDTSVSTAYLQISSLKAEDTAVYYCARSPYGDFGAMDYWGQGTLVTVSS
VL: DIQMTQSPSSLSASVGDRVTITCTASSSVSSNYLHWYQQKPGSSPKLWIYSTSNLPSGVPSRFSGSGSGTDFTLTISSLQPEDFATYYCHQYHRSPWTFGQGTKVEIK
notes: Humanized form of #224; also called VH9 + VL7
As to B4, the “% Relative activity (WT antibody/test antibody)” value came out at 124% in test [1], 121% in test [2], 138% in test [3] and 105% in test [4].

B5: 224-Hu4 (antibody, V domains shown)
VH: QVQLVQSGSELKKPGASVKVSCKASGFNNKDIYMHWVRQAPGQGLEWMGRIDPATGNTKHDPKFQDKAVLSSDTSVSTAYLQISSLKAEDTAVYYCARSPYGDFGAMDYWGQGTLVTVSS
VL: DIQMTQSPSSLSASVGDRVTITCTASSSVSSNYLHWYQQKPGKAPKLWIYSTSNLPSGVPSRFSGSGSGTDFTLTISSLQPEDFATYYCHQYHRSPWTFGQGTKVEIK
notes: Humanized form of #224; also called VH9 + VL6
Take B5: the “% Relative activity (WT antibody/test antibody)” value in test [1] stood at 102%; in test [2], 105%; in test [3] it was 108%; in test [4], 97.3%.

B6: 224-Hu3 (antibody, V domains shown)
VH: QVQLVQSGSELKKPGASVKVSCKASGFNNKDIYMHWVRQAPGQGLEWMGRIDPATGNTKHDPKFQDKAVLSSDTSVSTAYLQISSLKAEDTAVYYCARSPYGDFGAMDYWGQGTLVTVSS
VL: DIQMTQSPSSLSASVGDRVTITCTASSSVSSNYLHWYQQKPGKAPKLLIYSTSNLPSGVPSRFSGSGSGTDFTLTISSLQAEDAATYYCHQYHRSPWTFGQGTKVEIK
notes: Humanized form of #224; also called VH9 + VL8
B6: the “% Relative activity (WT antibody/test antibody)” value came out at 107% in test [1], 120% in test [2], 122% in test [3] and 95.6% in test [4].

B7: 224-Hu5 (antibody, V domains shown)
VH: QVQLVQSGSELKKPGASVKVSCKASGFNNKDIYMHWVRQAPGQGLEWMGRIDPATGNTKHDPKFQDKAVLSSDTSVSTAYLQISSLKAEDTAVYYCARSPYGDFGAMDYWGQGTLVTVSS
VL: DIQMTQSPSSLSASVGDRVTITCTASSSVSSNYLHWYQQKPGKAPKLLIYSTSNLPSGVPSRFSGSGSGTDYSLTISSLQPEDFATYYCHQYHRSPWTFGQGTKVEIK
notes: Humanized form of #224; also called VH9 + VL9
Regarding B7, the “% Relative activity (WT antibody/test antibody)” value in test [1] was found to be 95%; in test [2] it was 93.1%; in test [3], 99.4%; in test [4] it was 94.4%.

The record behind these values is US20240109974A1 (SHANDONG SIMCERE BIOPHARMACEUTICAL, published 2024).
